# B1: TmNADD (Tuber melanosporum Mel28) (protein)
# chain: MTQPYTATTESHKTSMLSRKFGQEIINYFSGSPLNRVSFLRSSTAFLRAALPRSKFLLMRDLEPLAASKTTLAWVGYETVRELVGNPFDTEEEEFLRGYDSRVEIPTLVFLGMNEEGTGGGGGGESFEFEGEGGKYVGGPCFALDVTEKGSLKEECEKVQEEAVKGAEGREFRKVRLDLSLVPSDAAILAQARSLLDWNNRNQFCSACGARTVSVHAGTKRICPPSDKAFQKDPEGPPFERPPCISRKGIHNIAFPRTDPTVIMAIINSTGDKVLLGRQRRWPKDFYSTLAGFCEPAESVEDAVRRETWEESGVRVGRVVIHSTQPWPYPANLMMGAIGEALPGGEEIVLKHDPELEDAQWVEVGRVRNALQESTGTPDVEVEGAIEGQLRLPPSTAIAHQLLLAVVNGFHLAKL
# Experiments:
# [1] = substrate: NC(=O)C1=CN([C@@H]2O[C@H](COP(=O)(O)OP(=O)(O)OC[C@H]3O[C@@H](n4cnc5c(N)ncnc54)[C@H](O)[C@@H]3O)[C@@H](O)[C@H]2O)C=CC1; test: HPLC of AMP formation, initial rates, Michaelis-Menten fit; format: biochemical, Tuber melanosporum; details: 50 mM Tris-HCl pH 8.0, 37 °C, 0.5 mM MnCl2
# Description: (§1) HPLC of AMP formation, initial rates, Michaelis-Menten fit on […]
# [2] = substrate: NC(=O)c1ccc[n+]([C@@H]2O[C@H](COP(=O)(O)OP(=O)(O)OC[C@H]3O[C@@H](n4cnc5c(N)ncnc54)[C@H](O)[C@@H]3O)[C@@H](O)[C@H]2O)c1; test: as above; format: biochemical, Tuber melanosporum; details: 50 mM Tris-HCl pH 8.0, 37 °C, 0.5 mM MnCl2
# Description: as §1
protein,measurement,setting,value
B1,Km,[1],120 ± 10 µM
same,kcat,[1],10.7 ± 1.8 s⁻¹
same,kcat/Km,[1],89200 ± 19800 M⁻¹ s⁻¹
same,Km,[2],310 ± 50 µM
same,kcat,[2],2.9 ± 0.2 s⁻¹
same,kcat/Km,[2],9300 ± 1600 M⁻¹ s⁻¹

# — paper PMC6856373, “The first comprehensive phylogenetic and biochemical analysis of NADH diphosphatases reveals that the enzyme from Tuber melanosporum is highly active towards NAD^+” (Scientific Reports, 2019)
